According to article PMC7154664 (Angewandte Chemie (International Ed. in English), 2020):

T1: YciA (Escherichia coli, UniProt P0A8Z0)
T1 sequence (P0A8Z0 1-132): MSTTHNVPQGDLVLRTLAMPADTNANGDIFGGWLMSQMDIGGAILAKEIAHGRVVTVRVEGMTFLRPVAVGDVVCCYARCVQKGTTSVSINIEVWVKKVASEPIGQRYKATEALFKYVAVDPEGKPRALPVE

B1: OXCMe (Methylorubrum extorquens AM1) (protein)
chain: MTVQAQNIDAITAGAMPHEEPELTDGFHLVIDALKLNGIETIYNVPGIPITDLGRLAQAEGLRVISFRHEQNAGNAAAIAGFLTKKPGICLTVSAPGFLNGLTALANATTNCFPMILISGSSEREIVDLQQGDYEEMDQLAIAKPLCKAAFRVLHAADIGIGVARAIRAAVSGRPGGVYLDLPAKLFSQVIDADLGARSLVKVIDAAPAQLPAPAAIARALDVLKSAERPLIILGKGAAYAQADEAVRALVEESGIPYVPMSMAKGLLPDTHPLSAGAARSTALKDSDVVLLVGARLNWLLSHGKGKTWGEPGSKRFIQIDIEPREMDSNVEIVAPVVGDIGSCVEALLDGIRKDWKGAPSNWLETLRGKREANIAKMAPKLMKNSSPMCFHSALGALRTVIKERPDAILVNEGANTLDLARGIIDMYQPRKRLDVGTWGVMGIGMGFAVAAAVETGKPVLAVEGDSAFGFSGMEVETICRYELPVCIVIFNNNGIYRGTDTDPTGRDPGTTVFVKNSRYDKMMEAFGGVGVNVTTPDELKRAVDEAMNSGKPTLINAEIDPAAGSESGNIGSLNPQSTLKKK
B2: OXCMe (Methylorubrum extorquens AM1; S568A/Y497A) (protein)
chain: MTVQAQNIDAITAGAMPHEEPELTDGFHLVIDALKLNGIETIYNVPGIPITDLGRLAQAEGLRVISFRHEQNAGNAAAIAGFLTKKPGICLTVSAPGFLNGLTALANATTNCFPMILISGSSEREIVDLQQGDYEEMDQLAIAKPLCKAAFRVLHAADIGIGVARAIRAAVSGRPGGVYLDLPAKLFSQVIDADLGARSLVKVIDAAPAQLPAPAAIARALDVLKSAERPLIILGKGAAYAQADEAVRALVEESGIPYVPMSMAKGLLPDTHPLSAGAARSTALKDSDVVLLVGARLNWLLSHGKGKTWGEPGSKRFIQIDIEPREMDSNVEIVAPVVGDIGSCVEALLDGIRKDWKGAPSNWLETLRGKREANIAKMAPKLMKNSSPMCFHSALGALRTVIKERPDAILVNEGANTLDLARGIIDMYQPRKRLDVGTWGVMGIGMGFAVAAAVETGKPVLAVEGDSAFGFSGMEVETICRYELPVCIVIFNNNGIARGTDTDPTGRDPGTTVFVKNSRYDKMMEAFGGVGVNVTTPDELKRAVDEAMNSGKPTLINAEIDPAAGSEAGNIGSLNPQSTLKKK
B3: OXCMe (Methylorubrum extorquens AM1; Y497A) (protein)
chain: MTVQAQNIDAITAGAMPHEEPELTDGFHLVIDALKLNGIETIYNVPGIPITDLGRLAQAEGLRVISFRHEQNAGNAAAIAGFLTKKPGICLTVSAPGFLNGLTALANATTNCFPMILISGSSEREIVDLQQGDYEEMDQLAIAKPLCKAAFRVLHAADIGIGVARAIRAAVSGRPGGVYLDLPAKLFSQVIDADLGARSLVKVIDAAPAQLPAPAAIARALDVLKSAERPLIILGKGAAYAQADEAVRALVEESGIPYVPMSMAKGLLPDTHPLSAGAARSTALKDSDVVLLVGARLNWLLSHGKGKTWGEPGSKRFIQIDIEPREMDSNVEIVAPVVGDIGSCVEALLDGIRKDWKGAPSNWLETLRGKREANIAKMAPKLMKNSSPMCFHSALGALRTVIKERPDAILVNEGANTLDLARGIIDMYQPRKRLDVGTWGVMGIGMGFAVAAAVETGKPVLAVEGDSAFGFSGMEVETICRYELPVCIVIFNNNGIARGTDTDPTGRDPGTTVFVKNSRYDKMMEAFGGVGVNVTTPDELKRAVDEAMNSGKPTLINAEIDPAAGSESGNIGSLNPQSTLKKK
B4: OXCMe (Methylorubrum extorquens AM1; S568A) (protein)
chain: MTVQAQNIDAITAGAMPHEEPELTDGFHLVIDALKLNGIETIYNVPGIPITDLGRLAQAEGLRVISFRHEQNAGNAAAIAGFLTKKPGICLTVSAPGFLNGLTALANATTNCFPMILISGSSEREIVDLQQGDYEEMDQLAIAKPLCKAAFRVLHAADIGIGVARAIRAAVSGRPGGVYLDLPAKLFSQVIDADLGARSLVKVIDAAPAQLPAPAAIARALDVLKSAERPLIILGKGAAYAQADEAVRALVEESGIPYVPMSMAKGLLPDTHPLSAGAARSTALKDSDVVLLVGARLNWLLSHGKGKTWGEPGSKRFIQIDIEPREMDSNVEIVAPVVGDIGSCVEALLDGIRKDWKGAPSNWLETLRGKREANIAKMAPKLMKNSSPMCFHSALGALRTVIKERPDAILVNEGANTLDLARGIIDMYQPRKRLDVGTWGVMGIGMGFAVAAAVETGKPVLAVEGDSAFGFSGMEVETICRYELPVCIVIFNNNGIYRGTDTDPTGRDPGTTVFVKNSRYDKMMEAFGGVGVNVTTPDELKRAVDEAMNSGKPTLINAEIDPAAGSEAGNIGSLNPQSTLKKK

Experiments:
HACLHs = HACLHs (Homo sapiens, UniProt Q9UJ83); assay: carboligation, LC-MS product analysis after […] h; assay type: biochemical; conditions: formyl-CoA 1 mM as C1 donor, aldehyde 10 mM, enzyme 5 μM
HACLHs, sequence (Q9UJ83 whole entry): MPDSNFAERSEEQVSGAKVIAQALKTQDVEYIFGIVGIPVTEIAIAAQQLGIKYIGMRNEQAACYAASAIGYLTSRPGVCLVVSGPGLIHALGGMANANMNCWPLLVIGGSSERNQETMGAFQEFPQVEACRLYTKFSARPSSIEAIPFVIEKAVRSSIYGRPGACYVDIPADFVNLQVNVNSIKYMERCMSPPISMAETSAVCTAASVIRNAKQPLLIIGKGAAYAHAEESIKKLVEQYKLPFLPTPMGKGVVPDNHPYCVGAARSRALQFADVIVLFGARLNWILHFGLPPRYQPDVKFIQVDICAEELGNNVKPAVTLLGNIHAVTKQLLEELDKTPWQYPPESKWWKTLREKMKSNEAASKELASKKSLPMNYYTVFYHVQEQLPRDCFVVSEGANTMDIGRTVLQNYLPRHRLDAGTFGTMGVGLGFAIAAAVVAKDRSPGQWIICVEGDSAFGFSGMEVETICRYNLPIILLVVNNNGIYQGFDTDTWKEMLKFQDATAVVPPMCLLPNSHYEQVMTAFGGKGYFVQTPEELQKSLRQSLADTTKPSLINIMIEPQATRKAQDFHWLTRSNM

YciA = biological target: T1, YciA; assay: thioesterase activity assay; assay type: biochemical; conditions: racemic mandelyl-CoA 0.5 mM, YciA 2 μM
purified protein = substrate: CC(C)(COP(=O)(O)OP(=O)(O)OC[C@H]1O[C@@H](n2cnc3c(N)ncnc32)[C@H](O)[C@@H]1OP(=O)(O)O)[C@@H](O)C(=O)NCCC(=O)NCCSC(=O)C(=O)O; assay: purified protein; conditions: decarboxylation to formyl-CoA; ThDP-dependent

Molecule | carboligation, LC-MS product analysis after 1 h (HACLHs) | thioesterase activity assay (YciA) | Km (purified protein) | kcat (purified protein) | kcat/Km (purified protein)
CC(C)(COP(=O)(O)OP(=O)(O)OC[C@H]1O[C@@H](n2cnc3c(N)ncnc32)[C@H](O)[C@@H]1OP(=O)(O)O)[C@@H](O)C(=O)NCCC(=O)NCCSC=O [formyl‐CoA] | HACLHs and OXCMe are able to perform nucleophilic C1‐extension reactions of different aldehydes with formyl‐CoA |  |  |  | 
CC(C)(COP(=O)(O)OP(=O)(O)OC[C@H]1O[C@@H](n2cnc3c(N)ncnc32)[C@H](O)[C@@H]1OP(=O)(O)O)[C@@H](O)C(=O)NCCC(=O)NCCSC(=O)C(O)c1ccccc1 (stereo partly drawn) [mandelyl‐CoA] |  | YciA showed relatively high mandelyl‐CoA thioesterase activity |  |  | 
B1 |  |  | 105 ± 11 µM | 98 ± 3 s⁻¹ | 930000 M⁻¹ s⁻¹
B2 |  |  | 103 ± 15 µM | 0.32 ± 0.01 s⁻¹ | 3100 M⁻¹ s⁻¹
B3 |  |  | 180 ± 17 µM | 1.32 ± 0.04 s⁻¹ | 7300 M⁻¹ s⁻¹
B4 |  |  | 23 ± 2 µM |  | 
